Measurements from article PMC8034431.
Values belong to the molecule of their own block, whether it stands above or below them.

Experiments:
[1] = molecular target: wild-type FLT3 ligand (FLWT); experiment: SEC-MALS; ligand mixed with FLT3_(D1-D5) (20% molar excess of FL_(L27D)); Superdex 200 Increase, HBS (20 mM HEPES pH 7.4, 150 mM NaCl), 0.5 ml/min, 25 °C; glycoprotein conjugate analysis; N for FLWT counts FLT3 molecules for each dimeric FLWT
[2] = molecular target: human FLT3 domains 1-5 (FLT3_(D1-D5)) (human) (UniProt P36888); experiment: as above

stoichiometry N [1]: 2
Molecule: human FLT3 domains 1-5 (FLT3_(D1-D5)) (from UniProt P36888 27-541) (domain or fragment)

stoichiometry N [2]: 1
B1: FLT3 ligand Leu27Asp mutant (FL_(L27D)), as produced (ligand)
chain: TQDCSFQHSPISSDFAVKIRELSDYLDQDYPVTVASNLQDEELCGGLWRLVLAQRWMERLKTVAGSKMQGLLERVNTEIHFVTKCAFQPPPSCLRFVQTNISRLLQETSEQLVALKPWITRQNFSRCLELQCQP
